Starred links: 1 amine or outer side, 2 acyl side, 3 side chain; linkers in the order of their positions; H or OH if unused. Non-standard residues stand in square brackets, D forms with d. Groups on a side chain read outwards from the residue. Primed or numbered codes have the meaning given here. No end group written: not given here. *: point of attachment. γGlu = O=C(O)[C@H](CCC(=O)[*:2])N[*:1]; αMeF = C[C@](N)(Cc1ccccc1)C(=O)O; αMeK = C[C@](N)(CCCCN)C(=O)O; Lauroyl = CCCCCCCCCCCC(=O)*; αMeS = C[C@](N)(CO)C(=O)O; PEG2′ = not defined here; Aib = CC(C)(N)C(=O)O
T1: glucose-dependent insulinotropic peptide (gastric inhibitory polypeptide) receptor (GIPR), primary cAMP assay … (human, UniProt P48546 22-466)
T1 sequence (looked up): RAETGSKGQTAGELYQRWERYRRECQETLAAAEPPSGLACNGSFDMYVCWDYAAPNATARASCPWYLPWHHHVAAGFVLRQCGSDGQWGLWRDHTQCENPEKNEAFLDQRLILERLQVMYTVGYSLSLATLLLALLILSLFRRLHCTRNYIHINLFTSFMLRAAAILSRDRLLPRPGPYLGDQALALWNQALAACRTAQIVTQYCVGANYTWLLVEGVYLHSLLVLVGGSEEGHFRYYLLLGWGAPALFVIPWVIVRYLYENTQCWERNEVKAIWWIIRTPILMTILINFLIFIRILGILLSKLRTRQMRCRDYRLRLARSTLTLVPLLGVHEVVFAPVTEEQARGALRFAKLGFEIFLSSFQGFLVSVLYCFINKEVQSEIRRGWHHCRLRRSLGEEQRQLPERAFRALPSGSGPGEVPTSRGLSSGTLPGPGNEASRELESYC


Columns and labels:
Assay in all cases: cell-based or functional assay
[1] = biological target: GLP-1 receptor (GLP-1R), primary cAMP assay cell line (human, UniProt P43220 24-463)
[2] = biological target: glucagon receptor (GCGR), primary cAMP assay cell line (human, UniProt P47871 26-477)
[3] = biological target: T1, glucose-dependent insulinotropic …

Sequence of glucagon receptor (GCGR), primary cAMP assay cell line (P47871 26-477): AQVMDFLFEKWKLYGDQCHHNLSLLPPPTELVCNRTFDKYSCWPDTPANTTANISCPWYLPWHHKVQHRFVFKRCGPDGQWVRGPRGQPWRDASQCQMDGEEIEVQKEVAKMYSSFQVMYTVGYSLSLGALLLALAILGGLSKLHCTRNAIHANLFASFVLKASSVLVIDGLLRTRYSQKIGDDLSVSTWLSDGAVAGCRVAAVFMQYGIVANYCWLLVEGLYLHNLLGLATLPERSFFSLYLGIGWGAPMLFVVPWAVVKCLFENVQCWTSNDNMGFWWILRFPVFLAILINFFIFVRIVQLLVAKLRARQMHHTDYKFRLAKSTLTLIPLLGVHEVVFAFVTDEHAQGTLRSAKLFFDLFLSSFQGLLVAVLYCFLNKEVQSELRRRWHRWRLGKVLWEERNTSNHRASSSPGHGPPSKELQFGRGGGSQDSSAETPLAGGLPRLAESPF

cAMP Primary assay EC50, Mean pM GLP-1R [1] [pM] | cAMP Primary assay EC50, n1 [1] [nM] | cAMP Primary assay EC50, n2 [1] [nM] | cAMP Primary assay EC50, n1 [2] [nM] | cAMP Primary assay EC50, n2 [2] [nM] | cAMP Primary assay EC50, n1 [3] [nM] | cAMP Primary assay EC50, n2 [3] [nM] | Binder
142 | 0.127 | 0.156 | 19.8 | 19.8 | 19.8 | 19.8 | H[Aib]EGS[αMeF]TSDK([PEG2′-PEG2′-γGlu-Lauroyl])SSYLEGEK([PEG2′-PEG2′-γGlu-Lauroyl])A[αMeK]EFIAK([PEG2′-PEG2′-γGlu-Lauroyl])VVEGG-NH2 [SEQ ID NO: 457]
287 | 0.297 | 0.277 | 19.9 | 19.9 | 19.9 | 19.9 | H[Aib]EGS[αMeF]TSDK([PEG2′-PEG2′-γGlu-Lauroyl])SSYLEGK([PEG2′-PEG2′-γGlu-Lauroyl])AA[αMeK]EFIAFK([PEG2′-PEG2′-γGlu-Lauroyl])VEGG-NH2 [SEQ ID NO: 472]
170 | 0.116 | 0.224 | 10 | 20 | 20 | 20 | H[Aib]EGS[αMeF]TSDK([PEG2′-PEG2′-γGlu-Lauroyl])SSYLEGK([PEG2′-PEG2′-γGlu-Lauroyl])AA[αMeK]EFIAK([PEG2′-PEG2′-γGlu-Lauroyl])VVEGG-NH2 [SEQ ID NO: 456]
290 | 0.279 | 0.3 | 19.9 | 19.9 | 19.9 | 19.9 | H[Aib]EGS[αMeF]TSDK([PEG2′-PEG2′-γGlu-Lauroyl])SSYLEGEAA[αMeK]K([PEG2′-PEG2′-γGlu-Lauroyl])FIAFK([PEG2′-PEG2′-γGlu-Lauroyl])VEGG-NH2 [SEQ ID NO: 474]
434 | 0.399 | 0.47 | 19.6 | 19.6 | 19.6 | 19.6 | H[Aib]EGS[αMeF]TSDK([PEG2′-PEG2′-γGlu-Lauroyl])SSYLEGEK([PEG2′-PEG2′-γGlu-Lauroyl])A[αMeK]EFIAFK([PEG2′-PEG2′-γGlu-Lauroyl])VEGG-NH2 [SEQ ID NO: 473]
117 | 0.101 | 0.133 | 20 | 20 | 20 | 20 | H[Aib]EGS[αMeF]TSDV[αMeS]SK([PEG2′-PEG2′-γGlu-Lauroyl])LEGEK([PEG2′-PEG2′-γGlu-Lauroyl])A[αMeK]EFIAK([PEG2′-PEG2′-γGlu-Lauroyl])VVEGG-NH2 [SEQ ID NO: 465]
114 | 0.0629 | 0.165 | 19.5 | 19.5 | 19.5 | 19.5 | H[Aib]EGS[αMeF]TSDV[αMeS]SYK([PEG2′-PEG2′-γGlu-Lauroyl])EGEK([PEG2′-PEG2′-γGlu-Lauroyl])A[αMeK]EFIK([PEG2′-PEG2′-γGlu-Lauroyl])FVVEGG-NH2 [SEQ ID NO: 453]
73.5 | 0.0624 | 0.0845 | 20 | 20 | 20 | 20 | H[Aib]EGS[αMeF]TSDV[αMeS]SYK([PEG2′-PEG2′-γGlu-Lauroyl])EGK([PEG2′-PEG2′-γGlu-Lauroyl])AA[αMeK]EFIAK([PEG2′-PEG2′-γGlu-Lauroyl])VVEGG-NH2 [SEQ ID NO: 468]
110 | 0.0745 | 0.145 | 19.8 | 19.8 | 19.8 | 19.8 | H[Aib]EGS[αMeF]TSDVSK([PEG2′-PEG2′-γGlu-Lauroyl])YLEGEK([PEG2′-PEG2′-γGlu-Lauroyl])A[αMeK]EFIAK([PEG2′-PEG2′-γGlu-Lauroyl])VVEGG-NH2 [SEQ ID NO: 461]
80.9 | 0.0857 | 0.0761 | 19.5 | 19.7 | 19.5 | 19.7 | H[Aib]EGS[αMeF]TSDV[αMeS]SYK([PEG2′-PEG2′-γGlu-Lauroyl])EGK([PEG2′-PEG2′-γGlu-Lauroyl])AA[αMeK]EFIK([PEG2′-PEG2′-γGlu-Lauroyl])FVVEGG-NH2 [SEQ ID NO: 452]
82 | 0.0695 | 0.0944 | 20 | 20 | 20 | 20 | H[Aib]EGS[αMeF]TSDV[αMeS]SK([PEG2′-PEG2′-γGlu-Lauroyl])LEK([PEG2′-PEG2′-γGlu-Lauroyl])EAA[αMeK]EFIAK([PEG2′-PEG2′-γGlu-Lauroyl])VVEGG-NH2 [SEQ ID NO: 463]
93.4 | 0.0288 | 0.158 | 19.7 | 19.5 | 19.7 | 19.5 | H[Aib]EGS[αMeF]TSDV[αMeS]SYK([PEG2′-PEG2′-γGlu-Lauroyl])EK([PEG2′-PEG2′-γGlu-Lauroyl])EAA[αMeK]EFIK([PEG2′-PEG2′-γGlu-Lauroyl])FVVEGG-NH2 [SEQ ID NO: 451]
100 | 0.0895 | 0.111 | 19.7 | 19.7 | 19.7 | 19.7 | H[Aib]EGS[αMeF]TSDVSK([PEG2′-PEG2′-γGlu-Lauroyl])YLEK([PEG2′-PEG2′-γGlu-Lauroyl])EAA[αMeK]EFIAK([PEG2′-PEG2′-γGlu-Lauroyl])VVEGG-NH2 [SEQ ID NO: 459]
374 | 0.277 | 0.47 | 19.6 | 19.6 | 19.6 | 19.6 | H[Aib]EGS[αMeF]TSDK([PEG2′-PEG2′-γGlu-Lauroyl])SSYLEK([PEG2′-PEG2′-γGlu-Lauroyl])EAA[αMeK]EFIAFK([PEG2′-PEG2′-γGlu-Lauroyl])VEGG-NH2 [SEQ ID NO: 471]
216 | 0.174 | 0.257 | 19.8 | 19.8 | 19.8 | 19.8 | H[Aib]EGS[αMeF]TSDVSK([PEG2′-PEG2′-γGlu-Lauroyl])YLEGK([PEG2′-PEG2′-γGlu-Lauroyl])AA[αMeK]EFIAFK([PEG2′-PEG2′-γGlu-Lauroyl])VEGG-NH2 [SEQ ID NO: 476]
78.1 | 0.0674 | 0.0888 | 20 | 20 | 20 | 20 | H[Aib]EGS[αMeF]TSDVSK([PEG2′-PEG2′-γGlu-Lauroyl])YLEGK([PEG2′-PEG2′-γGlu-Lauroyl])AA[αMeK]EFIAK([PEG2′-PEG2′-γGlu-Lauroyl])VVEGG-NH2 [SEQ ID NO: 460]
288 | 0.228 | 0.347 | 19.5 | 19.5 | 19.5 | 19.5 | H[Aib]EGS[αMeF]TSDVSK([PEG2′-PEG2′-γGlu-Lauroyl])YLEK([PEG2′-PEG2′-γGlu-Lauroyl])EAA[αMeK]EFIAFK([PEG2′-PEG2′-γGlu-Lauroyl])VEGG-NH2 [SEQ ID NO: 475]

From patent US20200079833A1 (AstraZeneca / MedImmune, published 2020)
